Test results reported in publication PMC4972253.

Key:
VRC01 (human) = experiment: BLI
[1] = target: BG505 NFL trimer (Wt, unfixed) (HIV-1, subtype A, strain BG505); experiment: native gel or EMSA
[2] = target: JRFL NFL trimer (Wt, unfixed) (HIV-1, subtype B, strain JRFL); experiment: native gel or EMSA

VRC01 (human), sequence (light, as listed by the source, chain 2 of 2, other chains not shown): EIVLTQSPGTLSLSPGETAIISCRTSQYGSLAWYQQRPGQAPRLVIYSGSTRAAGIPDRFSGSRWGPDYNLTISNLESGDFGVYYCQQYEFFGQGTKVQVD

Row | Substance | relative binding (% of the day 0 response) after 7 days at 37°C in PBS (VRC01 (human)) | stoichiometry N [1] | stoichiometry N [2]
1 | BG505 NFL trimer (Wt, unfixed) (domain or fragment) | 90% | 3 | 
2 | JRFL NFL trimer (Wt, unfixed) (domain or fragment) |  |  | 3
